Results taken from patent US20230272113A1.
Where a chain is given by its changes, count along the chain named.

B1: FL-36 (scFv)
scFv: QVTLKESGPTLVKPTETLTLTCTFSGFSLRYARMGVSWIRQPPGKALEWLAHIFSNDEKSYSTSLKSRLTISKDTSKSQVVLTLTNMDPVDTATYFCARMPEYSSGWSGAFDIWGQGTMVTVSSGGGGSGGGGSGGGGSDIQMTQSPSSLSASVGDRVTITCRASQDIRNDLAWYQQKPGKAPKRLIYAASSLQSGVPSRFSGSGSGTEFTLTISSLQPEDFATYYCLQHNSYPLTFGGGTKLEIK
B2: FL-37 (scFv)
scFv: B1 scFv with T10V, F24V, Y31N, A32I, R33K, R169S, D171Y, Y233F
B3: FL-42 (scFv)
scFv: QVTLKESGPALVKPTETLTLTCTLSGFSLNNARMAVSWIRQPPGKCLEWLAHIFSNDEKSYSTSLKSRLTISKDTSKSQVVLTMTNMDPEDTATYYCARIVGYGTGWYGFFDYWGQGILVTVSSGGGGSGGGGSGGGGSDIQMTQSPSSLSASVGDRVTITCRASQGIRNDLAWYQQKPGKAPKRLIYAASSLQSGVPSRFSGSGSGTEFTLTISSLQPEDFATYYCLQHNSYPLTFGCGTKVEIK
B4: FL-40 (scFv)
scFv: QVTLKESGPTLVKPTETLTLTCTVSGFSLSNARMGVSWIRQPPGKCLEWLANIFSNDEKSYSTSLKSRLTISKGTSKSQVVLTMTNVNPVDTGTYYCARIVGYGSGWYGYFDYWGQGTLVTVSSGGGGSGGGGSGGGGSDIQMTQSPSSLSASVGDRVTITCRASQDIRNDLGWYQQKPGKAPKRLIYATSIRQSGVPSRFTGSGSGTEFTLTISGLQPEDFATYFCLQHNSFPLTFGCGTKVEIK
B5: FL-33 (scFv)
scFv: QVTLKESGPVLVKPTETLTLTCTVSGFSLRNARMGVSWIRQPPGKTLEWLAHIFSNDEKSYSTSLKSRLTISKDTSKGQVVLTMTNMDPVDTATYYCARIVGYGSGWYGYFDYWGQGTLVTVSSGGGGSGGGGSGGGGSDIQMTQSPSSLSASVGDRVTITCRASQGIGDDLGWYQQIPGKAPKRLIYATSVLQSGVPSRFSGSGSGTEFTLTISSLQPEDFATYYCLQHNSYPLTFGGGTKLEIK
B6: FL-30 (scFv)
scFv: QVTLKESGPVLVKPTQTLTLTCTFSGFSLSNARMGVSWIRQPPGKALEWLALIYWNDDKRYSPSLKSRLTITKDTSKNQVVLTMTNMDPVDTATYYCARMVGYGSGWYAYFDYWGQGTLVTVSSGGGGSGGGGSGGGGSDIQMTQSPSSLSASVGDRVTITCRASQGIRNDLGWYQQKPGKAPKRLIYAASSLQSGVPSRFSGSGSGTEFTLTISSLQPEDFATYYCLQHNSYPLTFGGGTKVEIK
B7: FL-41 (scFv)
scFv: QVTLKESGPVLVKPTQTLTLTCTFSGFSLSNARMGVSWIRQPPGKCLEWLAHIFSNDEKSFSTSLKNRLTISKDTSKSQVVLTMTNMDPVDTATYYCARMVGYGSGWYAYFDYWGQGTQVTVSSGGGGSGGGGSGGGGSDIQMTQSPSSLSASVGDRVTITCRASQSISSYLNWYQQKPGKAPKLLIYAASSLQSGVPSRFSGSGSGTDFTLTISSLQPEDFATYYCLQHNSYPLTFGCGTKVEIK
B8: FL-29 (scFv)
scFv: QVTLKESGPALVKPTQTLTLTCTFSGFSLSNARMGVSWIRQPPGKALEWLAHIFSNDEKSYRTSLKSRLTISKDTSKSQVVLTMTNMDPVDTATYYCARIVGYGSGWYAYFDYWGQGTLVTVSSGGGGSGGGGSGGGGSDIQMTQSPSSLSASVGDRVTITCRASQGIRNDLGWYQQKPGKAPKRLIYAASSLQSGVPSRFSGSGSGTEFTLTISSLQPEDFATYYCLQHNSYPLTFGGGTKVEIK
B9: FL-31 (scFv)
scFv: B8 scFv with R62S, N86D, V90E, S105T, A109G, Y110F, T118I, A164T
B10: FL-32 (scFv)
scFv: QVTLKESGPTLVKPTETLTLTCTVSGFSFRNARMGVSWIRQPPGKALEWLAHIFSNDEKSYSTSLKSRLTISKDTSKGQVVLTMTNMDPVDTATYYCARIVGYGSGWYGYFDYWGQGTLVTVSSGGGGSGGGGSGGGGSDIQMTQSPSSLSASVGDRVTITCRASQGIRNDLVWYQQKPGKAPKRLIYAASTLQSGVPSRFSGSGSGTEFILTISSLQPEDFATYFCLQHYSYPLTFGGGTKLEIK
B11: FL-39 (scFv)
scFv: QVTLKESGPTLVKPTETLTLTCTLSGFSLNNARMGVSWIRQPPGKCLEWLAHIFSNDEKSYSTSLKNRLTISKDSSKTQVVLTMTNVDPVDTATYYCARIVGYGSGWYGFFDYWGQGTLVTVSSGGGGSGGGGSGGGGSDIQMTQSPSSLSASVGDRVTITCRASQGIRNDLGWYQQKPGKAPKRLIYAASTLQSGVPSRFSGSGSGTEFTLTISSLQPEDFATYYCLQHNSYPLTFGCGTKVEIK
B12: FL-34 (scFv)
scFv: QVTLKESGPALVKPTETLTLTCTFSGFSLRNARMGVSWIRQPPGKALEWLAHIFWNDEKSYSTSLKSRLTISKDTSKSQVVLTMTNMDPVDTATYYCARIPYYGSGSYNYGMDVWGQGTTVTVSSGGGGSGGGGSGGGGSDIQMTQSPSSLSASVGDRVTITCRASQGIRNDLGWYQQKPGKAPKRLIYAASSLQSGVPSRFSGSGSGTEFTLTISSLQPEDFATYYCLQHNSYPLTFGGGTKLEIK
B13: FL-28 (scFv)
scFv: QVTLKESGPVLVKPTETLTLTCTVSGFSFRNARMGVSWIRQPPGKALEWLAHIFSNDEKSYSTSLKSRLTISKDTSKSQVVLTLTNMDPVDTATYFCARMPEYSSGWSGAFDIWGQGTMVTVSSGGGGSGGGGSGGGGSDIQMTQSPSSLSASVGDRVTITCRASQGIGDDLGWYQQIPGKAPKRLIYATSVLQSGVPSRFSGSGSGTEFTLTISSLQPEDFATYYCLQHNSYPLTFGGGTKVEIK
B14: FL-38 (scFv)
scFv: B1 scFv with T10V, F24V, L29F, Y31N, M119L, D167G, A173G
B15: FL-35 (scFv)
scFv: QVTLKESGPALVKPTETLTLTCTVSGFSLNNARMGVSWIRQPPGKALEWLAHIFSNDEKSYSTSLKNRLTISKDSSKTQVVLTMTNVDPVDTATYYCARIVGYGTGWYGFFDYWGQGTQVTVSSGGGGSGGGGSGGGGSDIQMTQSPSSLSASVGDRVTITCRASQDIRDDLVWYQQKPGKAPKRLIYGTSTLQSGVPSRFSGSGSGTEFTLTISSLQPEDFATYYCLQHHSYPLTFGGGTKLEIK

Molecular target: human FLT3 on transfected CHO cells (human) (UniProt P36888)
Assay: FACS, scFv on CHO-human FLT3 cells pre-incubated with FLT3 ligand (competitor)

Binder | median [+ligand]/median [w/o ligand]*100 [%]
B1 | > 75
B2 | > 75
B3 | > 75
B4 | > 75
B5 | > 75
B6 | > 75
B7 | > 75
B8 | > 75
B9 | > 75
B10 | > 75
B11 | > 75
B12 | > 75
B13 | > 75
B14 | > 75
B15 | > 75
